Data on three substances can be found in PMC11012335.

Data set [1] has as its target Hfq WT (Escherichia coli K-12 MG1655) (UniProt P0A6X3). Description: EMSA. The settings on record: EMSA: 20 mM Tris-HCl pH 7.6, 0.5 M NaCl, 1 mM EDTA, 1% glycerol, 20 min at 25 C, native PAGE in 0.5x TBE at 4 C. Background: In EMSA bound probe runs differently from free probe, usually more slowly.
Data set [2] has the same target. Description: competition. The settings on record: EMSA: 20 mM Tris-HCl pH 7.6, 0.5 M NaCl, 1 mM EDTA, 1% glycerol, 20 min at 25 C; native PAGE in 0.5x TBE at 4 C.

Consider DsrA, for which the K half in data set [1] (Hfq monomer, K1 (first shift)) came to 122 nM. Substance “GGGAACACAUCAGAUUUCCUGGUGUAACGAAUUUUUUAAGUGCUUCUUGCUUAAGCAAGUUUCAUCCCGACCCCCUCAGGGUCGGGAUUU [DsrA]” gave a K half in data set [1] of 122 nM. For the same substance, the binding entry in data set [2] is reported as “binds”.

In turn, RNA I FL showed a binding signal in data set [1] (347.5 nM Hfq monomer) of 72.1 % bound. For the same substance, the K half in data set [1] (Hfq monomer, K1 (first shift)) stood at 225 nM.
